Measurements as given in patent US20200308270A1 (Zymeworks, published 2020).
Residue numbers refer to the chain shown, from its start. Names may count otherwise.

B1: CAT-2200 designed Vlambda-Ckappa chimeric Fab, design 18 (E83F_D85T_T105E) (Fab, V domains shown)
VH: not shown
VL: NFMLTQPHSVSESPGKTVTISCTRSSGSLANYYVQWYQQRPGSSPTIVIFANNQRPSGVPDRFSGSIDSSSNSASLTISGLKTEDFATYYCQTYDPYSVVFGGGTKLEVLR
B2: CAT-2200 designed Vlambda-Ckappa chimeric Fab, design 14 (E83F) (Fab, V domains shown)
VH: not shown
VL: B1 VL with T88D, E108T
B3: CAT-2200 designed Vlambda-Ckappa chimeric Fab, design 15 (E83F_T105E) (Fab, V domains shown)
VH: not shown
VL: B1 VL with T88D
B4: CAT-2200 designed Vlambda-Ckappa chimeric Fab, design 16 (E83F_V106I) (Fab, V domains shown)
VH: not shown
VL: B1 VL with T88D, E108T, V109I
B5: CAT-2200 designed Vlambda-Ckappa chimeric Fab, design 17 (E83F_D85T) (Fab, V domains shown)
VH: not shown
VL: B1 VL with E108T
B6: CAT-2200 designed Vlambda-Ckappa chimeric Fab, design 19 (E83F_D85V_T105E) (Fab, V domains shown)
VH: not shown
VL: B1 VL with T88V
B7: CAT-2200 designed Vlambda-Ckappa chimeric Fab, design 20 (E83F_D85T_T105E_V106I) (Fab, V domains shown)
VH: not shown
VL: B1 VL with V109I
B8: CAT-2200 designed Vlambda-Ckappa chimeric Fab, design 21 (E83F_D85V_T105E_V106I) (Fab, V domains shown)
VH: not shown
VL: B1 VL with T88V, V109I
B9: H3 designed Vlambda-Ckappa chimeric Fab, design 18 (E83F_D85T_T105E) (Fab, name in Kabat numbering, V domains shown)
VH: QVQLQESGGGLVKPGGSLRLSCAASGFTFSSYWMSWVRQAPGKGLEWVANINRDGSASYYVDSVKGRFTISRDDAKNSLYLQMNSLRAEDTAVYYCARDRGVGYFDLWGRGTLVTVSS
VL: QSALTQPASVSGSPGQSITISCTGTSSDVGGYNFVSWYQQHPGKAPKLMIYDVSDRPSGVSDRFSGSKSGNTASLIISGLQADDFATYYCSSYGSSSTHVIFGGGTKVEVLR
B10: H3 Vlambda-Ckappa chimeric Fab (Fab, V domains shown)
VH: B9 VH
VL: B9 VL with F85E, T87D, E109T
notes: Parent chimeric Fab without stabilizing substitutions; also called chimera; VL-CK chimeric Fab
B11: H3 designed Vlambda-Ckappa chimeric Fab, design 14 (E83F) (Fab, name in Kabat numbering, V domains shown)
VH: B9 VH
VL: B9 VL with T87D, E109T
B12: H3 designed Vlambda-Ckappa chimeric Fab, design 15 (E83F_T105E) (Fab, name in Kabat numbering, V domains shown)
VH: B9 VH
VL: B9 VL with T87D
B13: H3 designed Vlambda-Ckappa chimeric Fab, design 16 (E83F_V106I) (Fab, name in Kabat numbering, V domains shown)
VH: B9 VH
VL: B9 VL with T87D, E109T, V110I
B14: H3 designed Vlambda-Ckappa chimeric Fab, design 17 (E83F_D85T) (Fab, name in Kabat numbering, V domains shown)
VH: B9 VH
VL: B9 VL with E109T
B15: H3 designed Vlambda-Ckappa chimeric Fab, design 19 (E83F_D85V_T105E) (Fab, name in Kabat numbering, V domains shown)
VH: B9 VH
VL: B9 VL with T87V
B16: H3 designed Vlambda-Ckappa chimeric Fab, design 20 (E83F_D85T_T105E_V106I) (Fab, name in Kabat numbering, V domains shown)
VH: B9 VH
VL: B9 VL with V110I
B17: H3 designed Vlambda-Ckappa chimeric Fab, design 21 (E83F_D85V_T105E_V106I) (Fab, name in Kabat numbering, V domains shown)
VH: B9 VH
VL: B9 VL with T87V, V110I
B18: H3 designed Vlambda-Ckappa chimeric Fab, design 22 (E83F_D85T_T105E_V106I_L106AK) (Fab, V domains shown)
VH: B9 VH
VL: B9 VL with V110I, L111K
B19: H3 designed Vlambda-Ckappa chimeric Fab, design 23 (E83V) (Fab, name in Kabat numbering, V domains shown)
VH: B9 VH
VL: B9 VL with F85V, T87D, E109T
B20: H3 designed Vlambda-Ckappa chimeric Fab, design 24 (E83V_T105E) (Fab, name in Kabat numbering, V domains shown)
VH: B9 VH
VL: B9 VL with F85V, T87D
B21: H3 designed Vlambda-Ckappa chimeric Fab, design 25 (E83V_V106I) (Fab, name in Kabat numbering, V domains shown)
VH: B9 VH
VL: B9 VL with F85V, T87D, E109T, V110I
B22: H3 designed Vlambda-Ckappa chimeric Fab, design 26 (E83V_D85T) (Fab, name in Kabat numbering, V domains shown)
VH: B9 VH
VL: B9 VL with F85V, E109T
B23: H3 designed Vlambda-Ckappa chimeric Fab, design 27 (E83V_D85T_T105E) (Fab, name in Kabat numbering, V domains shown)
VH: B9 VH
VL: B9 VL with F85V
B24: H3 designed Vlambda-Ckappa chimeric Fab, design 28 (E83V_D85V_T105E) (Fab, name in Kabat numbering, V domains shown)
VH: B9 VH
VL: B9 VL with F85V, T87V
B25: H3 designed Vlambda-Ckappa chimeric Fab, design 29 (E83V_D85T_T105E_V106I) (Fab, name in Kabat numbering, V domains shown)
VH: B9 VH
VL: B9 VL with F85V, V110I
B26: H3 designed Vlambda-Ckappa chimeric Fab, design 30 (E83I) (Fab, name in Kabat numbering, V domains shown)
VH: B9 VH
VL: B9 VL with F85I, T87D, E109T
B27: H3 designed Vlambda-Ckappa chimeric Fab, design 31 (E83I_T105E) (Fab, name in Kabat numbering, V domains shown)
VH: B9 VH
VL: B9 VL with F85I, T87D
B28: H3 designed Vlambda-Ckappa chimeric Fab, design 32 (E83I_D85T) (Fab, name in Kabat numbering, V domains shown)
VH: B9 VH
VL: B9 VL with F85I, E109T
B29: H3 designed Vlambda-Ckappa chimeric Fab, design 33 (E83I_D85T_T105E) (Fab, name in Kabat numbering, V domains shown)
VH: B9 VH
VL: B9 VL with F85I
B30: H3 designed Vlambda-Ckappa chimeric Fab, design 34 (E83I_D85T_T105E_V106I) (Fab, name in Kabat numbering, V domains shown)
VH: B9 VH
VL: B9 VL with F85I, V110I
B31: H3 designed Vlambda-Ckappa chimeric Fab, design 35 (E83A) (Fab, name in Kabat numbering, V domains shown)
VH: B9 VH
VL: B9 VL with F85A, T87D, E109T
B32: H3 designed Vlambda-Ckappa chimeric Fab, design 36 (E83A_T105E) (Fab, name in Kabat numbering, V domains shown)
VH: B9 VH
VL: B9 VL with F85A, T87D
B33: H3 designed Vlambda-Ckappa chimeric Fab, design 37 (E83A_D85T) (Fab, name in Kabat numbering, V domains shown)
VH: B9 VH
VL: B9 VL with F85A, E109T
B34: H3 designed Vlambda-Ckappa chimeric Fab, design 38 (E83A_D85T_T105E) (Fab, name in Kabat numbering, V domains shown)
VH: B9 VH
VL: B9 VL with F85A
B35: H3 designed Vlambda-Ckappa chimeric Fab, design 39 (E83A_D85T_T105E_V106I) (Fab, name in Kabat numbering, V domains shown)
VH: B9 VH
VL: B9 VL with F85A, V110I
B36: H3 wild-type lambda Fab (Fab, V domains shown)
VH: B9 VH
VL: B9 VL with F85E, T87D, E109T, R112G
notes: Truncated heavy chain (VH-CH1-upper IgG1 hinge) and 'wild-type' lambda light chain (H3 VL + IGLC2); also called WT; H3 Fab

molecular target: T1, recombinant human IL-17A (human, UniProt Q16552 20-155, limits assumed); test: SPR (ProteOn), IL-17A immobilized, Fab analyte;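 note: IL-17A amine-coupled on a GLC sensor chip at roughly 75–200 RU, double-referenced sensorgrams fitted with a Langmuir binding model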
T1 construct: Bought reagent
T1 sequence (Q16552 20-155 limits assumed): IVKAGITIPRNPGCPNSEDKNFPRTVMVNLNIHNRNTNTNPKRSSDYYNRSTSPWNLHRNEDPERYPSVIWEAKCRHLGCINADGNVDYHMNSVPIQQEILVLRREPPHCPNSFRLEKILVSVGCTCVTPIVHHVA
Procedure: IL-17 affinity determination was carried out as follows. The IL-17A surface was generated using a GLC sensorchip activated by a 1:10 dilution of the standard BioRad sNHS/EDC solutions injected for 140s at 100 pt/min in the ligand (vertical) direction. Immediately after the activation, 1 to 4 microg/mL solution of IL-17A in 10 mM NaOAc pH 4.5 was injected in the ligand (vertical) direction at a flow rate of 25 or 100 microL/min until approximately 75-200 resonance units (RUs) were immobilized. Remaining active groups were quenched by a 140s injection of 1M ethanolamine at 100 μL/min also in the ligand direction. […] Firstly, two buffer injections for 30s at 100 microL/min in the analyte (horizontal) direction were used to stabilize the baseline. […] Sensorgrams were aligned and double-referenced using the buffer blank injection and interspots, and the resulting sensorgrams were analyzed using ProteOn Manager software v3.1. The double-referenced sensorgrams were fit to the Langmuir binding model.

Point of comparison: B5, Kd 0.3 nM. Against it:
- B1 — the same, 0.3 nM
- B2 — the same, 0.3 nM
- B3 — the same, 0.3 nM
- B4 — the same, 0.3 nM
- B6 — the same, 0.3 nM
- B7 — the same, 0.3 nM
- B8 — the same, 0.3 nM

molecular target: T2, recombinant human HER3 (human, UniProt P21860 20-643); test: SPR (Biacore T200), HER3 captured via anti-His, Fab analyte;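 note: single cycle kinetics with five Fab concentrations, referenced against a blank flow cell and mock-buffer injections, sensorgrams fit to a 1:1 binding model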
T2 construct: Bought reagent
Procedure: HER3 affinity determination in Fabs was carried out as follows. The screening of Fabs (preparative SEC purified) for binding to HER3 antigen occurred in two steps: an indirect capture of HER3 onto the anti-His antibody, followed by the injection of five concentrations of Fabs, for kinetic analysis using single cycle kinetics. […] HER3 was injected at 4-8 μg/mL over the active flow cell for 60 s at a flow rate of 10 μL/min. […] HER3 was not captured on the reference (blank) flow cell. […] The captured HER3 surfaces were regenerated by 10 mM glycine pH 1.5 for 120 s at 30 μL/min to prepare the surfaces for the next injection cycle. At least two mock-buffer injections were performed for each analyte injection and used for referencing. The resulting single cycle kinetics sensorgrams were analyzed using Biacore T200 BiaEvaluation software version 3.0 and fit to the 1:1 binding model.

Point of comparison: B34, Kd 72.2 nM. Against it:
- B9 — within 1.5-fold, 90.5 nM
- B10 — within 1.5-fold, 92.7 nM
- B11 — within 1.5-fold, 92.6 nM
- B12 — within 1.5-fold, 90.8 nM
- B13 — within 1.5-fold, 88.5 nM
- B14 — within 1.5-fold, 83.1 nM
- B15 — within 1.5-fold, 83 nM
- B16 — within 1.5-fold, 85.8 nM
- B17 — within 1.5-fold, 82.6 nM
- B18 — within 1.5-fold, 80.5 nM
- B19 — within 1.5-fold, 95.7 nM
- B20 — within 1.5-fold, 102 nM
- B21 — within 1.5-fold, 80.6 nM
- B22 — within 1.5-fold, 82.1 nM
- B23 — within 1.5-fold, 84.1 nM
- B24 — within 1.5-fold, 89.2 nM
- B25 — within 1.5-fold, 77 nM
- B26 — within 1.5-fold, 95.1 nM
- B27 — within 1.5-fold, 82.7 nM
- B28 — within 1.5-fold, 83.8 nM
- B29 — within 1.5-fold, 89 nM
- B30 — within 1.5-fold, 75.4 nM
- B31 — within 1.5-fold, 59.1 nM
- B32 — within 1.5-fold, 66.4 nM
- B33 — within 1.5-fold, 83.5 nM
- B35 — within 1.5-fold, 89.6 nM
- B36 — within 1.5-fold, 92.4 nM
